From US20210395360A1 (published 2021)
Like-named read-outs stand apart in the source and are kept apart here.

How the values were obtained:
[1] = target: T1, mouse Sp35 in cell lysate (immunoprecipitation, Western) (mouse, UniProt Q9D1T0 36-614, limits assumed); experiment: IP
T1 construct: also called mSp35; mLINGO-1
T1 sequence (looked up): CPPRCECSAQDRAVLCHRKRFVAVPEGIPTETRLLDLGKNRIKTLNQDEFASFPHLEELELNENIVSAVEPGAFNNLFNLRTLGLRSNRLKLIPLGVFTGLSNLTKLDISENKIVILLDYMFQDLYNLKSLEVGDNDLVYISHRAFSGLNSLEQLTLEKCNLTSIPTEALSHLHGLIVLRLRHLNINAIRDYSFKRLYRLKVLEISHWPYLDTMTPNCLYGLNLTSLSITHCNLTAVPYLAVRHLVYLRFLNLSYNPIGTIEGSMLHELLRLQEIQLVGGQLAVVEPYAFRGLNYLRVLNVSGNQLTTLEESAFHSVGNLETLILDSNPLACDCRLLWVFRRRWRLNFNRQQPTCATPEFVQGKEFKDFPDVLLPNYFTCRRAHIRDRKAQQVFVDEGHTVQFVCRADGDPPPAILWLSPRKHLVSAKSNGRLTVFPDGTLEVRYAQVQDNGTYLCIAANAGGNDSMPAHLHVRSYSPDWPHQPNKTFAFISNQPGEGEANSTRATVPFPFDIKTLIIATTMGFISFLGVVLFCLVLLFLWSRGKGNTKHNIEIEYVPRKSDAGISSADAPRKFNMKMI

[2] = target: mouse Sp35 protein expressed on transfected cells (mouse) (UniProt Q9D1T0); experiment: FACS, stable CHO
[3] = target: T1, mouse Sp35 in cell lysate …; experiment: IP; remark: listed apart in the source
Procedure: (§1) To perform the immunoprecipitation, COS-1 cells expressing Sp35, fused to a hemaglutinin (HA) tag on the N-terminus, were produced by transiently transfecting COS-1 cells with a DNA construct which expresses the full-length Sp35 protein with an HA tag. Cells were harvested 48 hr after transfection and were lysed in 1 ml lysis buffer (50 mM HEPES, pH 7.5, 150 mM NaCl, 1.5 mM MgCl₂, 1 mM EGTA, 1% Triton X-100 and 10% glycerol) for 30 min at 4° C. After centrifugation at 14,000×g for 15 min, the supernatants were incubated with ProteinA/G-Sepharose beads (Santa Cruz) at 4° C. for 1 hr, and then incubated at 4° C. for 1 hr with either the 1A7 or the 2F3 anti-Sp35 murine monoclonal antibodies. The beads were washed 3 times with lysis buffer, boiled in Laemmli sample buffer, subjected to 4-20% SD S-PAGE, and analyzed by Western blotting using an antibody which recognizes the HA tag. As shown on the SDS-PAGE gel, monoclonal antibodies 1A7 and 2F3, immunoprecipitated human and murine Sp35 (FIG. 1). […] Similarly, monoclonal antibodies 1G7, 2B10, 2F3, 3P4C2.2D2, 3P4C8.2G9, Li01, Li03, Li05, Li06, Li07, Li08, Li11, Li12, 7P1D5.1G9 and 3B5.2 immunoprecipitate human or mouse or human and mouse Sp35 (See Table 3B and 3C). Additionally, Li08 immunoprecipitates AP-Sp35 and monoclonal antibodies 1B6.4 and 3E3.1 immunoprecipitate endogenous Sp35 (See Table 3B).

[4] = target: T2, Sp35-Fc fusion protein (human Sp35 residues 1-532 fused to hinge and Fc of human IgG1) (human, UniProt Q96FE5 40-538); experiment: ELISA
T2 construct: ran as a dimer under non-reducing conditions; also called LINGO-1-Ig; not shown: hinge and Fc region of human IgG1
T2 sequence: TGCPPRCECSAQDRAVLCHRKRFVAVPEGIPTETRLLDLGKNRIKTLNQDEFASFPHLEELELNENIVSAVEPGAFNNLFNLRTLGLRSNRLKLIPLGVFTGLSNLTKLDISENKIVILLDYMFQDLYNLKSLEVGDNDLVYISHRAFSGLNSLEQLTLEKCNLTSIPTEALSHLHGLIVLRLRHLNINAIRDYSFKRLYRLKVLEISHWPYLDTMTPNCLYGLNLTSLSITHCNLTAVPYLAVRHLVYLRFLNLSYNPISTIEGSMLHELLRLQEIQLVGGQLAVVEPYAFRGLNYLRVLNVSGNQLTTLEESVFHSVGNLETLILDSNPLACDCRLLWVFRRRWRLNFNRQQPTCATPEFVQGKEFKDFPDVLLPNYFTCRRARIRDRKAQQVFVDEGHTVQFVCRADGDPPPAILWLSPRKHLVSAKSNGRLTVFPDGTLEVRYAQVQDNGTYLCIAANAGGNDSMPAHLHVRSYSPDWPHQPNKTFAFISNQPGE
Procedure: In order to determine which regions of the Sp35 polypeptide were bound by the various hybridoma- and phage display-derived monoclonal antibodies produced in Example 2, an ELISA assay was performed using a panel of truncated Sp35 polypeptides, each fused to the hinge and Fc regions of IgG1 by the methods described in Example 1. […] Ovalbumin and BSA were used as controls. […] The affinity of these latter antibodies for mouse and rat Sp35 was restored to the level seen using human Sp35 when amino acid 419 of the mouse or rat Sp35 is changed from histidine (H) to arginine (R). Arginine is the amino acid at position 419 in human Sp35. […] AP substrate was then developed by 10 mg/ml 4NPP in 0.1 M Glycine, 1 mM MgCl₂, 1 mM ZnCl₂, pH 10.5, and read at O.D. 405.

[5] = target: T3, human Sp35 protein expressed on transfected cells (human, UniProt Q96FE5 40-620); experiment: IHC, transfected cells
T3 construct: also called huSp35; hLINGO-1
T3 sequence: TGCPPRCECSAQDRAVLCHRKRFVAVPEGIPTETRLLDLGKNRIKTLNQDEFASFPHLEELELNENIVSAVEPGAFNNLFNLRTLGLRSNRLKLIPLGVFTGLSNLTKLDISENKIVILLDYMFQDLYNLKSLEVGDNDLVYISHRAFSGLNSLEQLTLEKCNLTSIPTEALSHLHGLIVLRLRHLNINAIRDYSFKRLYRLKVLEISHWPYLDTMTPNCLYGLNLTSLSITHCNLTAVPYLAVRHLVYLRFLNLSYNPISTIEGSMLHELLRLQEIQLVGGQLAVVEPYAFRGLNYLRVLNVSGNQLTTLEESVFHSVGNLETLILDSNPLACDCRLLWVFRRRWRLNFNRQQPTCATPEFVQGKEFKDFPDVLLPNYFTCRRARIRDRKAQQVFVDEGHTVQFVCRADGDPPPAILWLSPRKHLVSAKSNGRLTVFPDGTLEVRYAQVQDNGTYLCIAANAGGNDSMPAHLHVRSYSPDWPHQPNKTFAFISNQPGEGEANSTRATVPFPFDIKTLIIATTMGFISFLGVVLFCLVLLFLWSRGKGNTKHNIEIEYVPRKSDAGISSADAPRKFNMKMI

[6] = target: T4, human Sp35, full-length, in cell lysate (immunoprecipitation, Western) (human, UniProt Q96FE5 40-620); experiment: IP
T4 construct: also called huSp35; hLINGO-1
T4 sequence: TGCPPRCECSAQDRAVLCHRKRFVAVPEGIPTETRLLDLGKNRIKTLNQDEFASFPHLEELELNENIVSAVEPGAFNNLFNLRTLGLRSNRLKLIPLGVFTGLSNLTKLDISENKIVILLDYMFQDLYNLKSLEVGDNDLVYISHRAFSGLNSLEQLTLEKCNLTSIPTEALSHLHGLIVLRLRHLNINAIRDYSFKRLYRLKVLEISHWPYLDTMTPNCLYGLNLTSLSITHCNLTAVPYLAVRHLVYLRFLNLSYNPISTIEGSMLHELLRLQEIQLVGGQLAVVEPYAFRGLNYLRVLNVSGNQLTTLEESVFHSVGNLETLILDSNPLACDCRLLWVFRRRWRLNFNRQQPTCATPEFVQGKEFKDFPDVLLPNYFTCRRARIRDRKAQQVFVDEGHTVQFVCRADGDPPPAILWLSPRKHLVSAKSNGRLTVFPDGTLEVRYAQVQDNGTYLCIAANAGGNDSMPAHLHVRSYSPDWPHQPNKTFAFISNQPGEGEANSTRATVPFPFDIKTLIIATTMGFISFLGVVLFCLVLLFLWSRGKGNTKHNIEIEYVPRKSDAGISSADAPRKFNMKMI
Procedure: as §1

[7] = target: T3, human Sp35 protein expressed on …; experiment: FACS, stable CHO
[8] = target: T5, Ig region of Sp35 (Homo sapiens (Human), UniProt Q96FE5 423-538, limits assumed); experiment: ELISA
T5 sequence: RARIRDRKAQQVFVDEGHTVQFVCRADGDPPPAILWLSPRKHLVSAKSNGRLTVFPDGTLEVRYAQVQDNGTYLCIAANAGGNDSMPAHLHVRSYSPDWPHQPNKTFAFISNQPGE

[9] = target: T6, mouse Sp35 protein expressed on transfected cells (mouse, UniProt Q9D1T0 36-614); experiment: FACS, stable CHO
T6 construct: whole, on cells; also called mSp35; mLINGO-1
T6 sequence (looked up): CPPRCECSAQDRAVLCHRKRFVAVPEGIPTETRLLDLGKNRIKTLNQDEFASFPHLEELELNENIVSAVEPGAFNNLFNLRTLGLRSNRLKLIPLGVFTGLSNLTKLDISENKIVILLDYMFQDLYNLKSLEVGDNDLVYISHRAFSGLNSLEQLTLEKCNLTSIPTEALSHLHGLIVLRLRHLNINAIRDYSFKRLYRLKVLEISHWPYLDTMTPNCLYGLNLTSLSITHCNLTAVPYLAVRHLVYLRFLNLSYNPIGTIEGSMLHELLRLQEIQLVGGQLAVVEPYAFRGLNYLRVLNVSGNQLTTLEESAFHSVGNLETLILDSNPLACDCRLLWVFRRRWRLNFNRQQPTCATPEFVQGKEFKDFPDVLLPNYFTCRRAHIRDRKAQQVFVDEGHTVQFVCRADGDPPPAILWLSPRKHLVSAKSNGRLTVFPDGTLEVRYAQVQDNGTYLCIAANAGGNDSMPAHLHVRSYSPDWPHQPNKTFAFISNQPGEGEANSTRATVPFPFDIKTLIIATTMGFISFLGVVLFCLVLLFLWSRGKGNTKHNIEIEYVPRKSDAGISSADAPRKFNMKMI

B1: 80-D02 (Dli34) Fab (Fab, V domains shown)
VH: EVQLLESGGGLVQPGGSLRLSCAASGFTFSNYEMYWVRQAPGKGLEWVSGIYSSGGITVYADSVKGRFTISRDNSKNTLYLQMNSLRAEDTAVYYCARAAILDWYFDLWGRGTLVTVSS
VL: DIQMTQSPSSLSASVGDRVTITCHASQDISNYLSWYQQKPGKAPKLLIYDAFNLETGVPSRFSGSGSGTDFTFTISSLQPEDFATYYCQHYDNLPFTFGPGTRVAIR
notes: human
binding result [1]: binds

B2: D05 (full-length antibody with Li05 variable region) (antibody, V domains shown)
VH: EVQLLESGGGLVQPGGSLRLSCAASGFTFSAYAMGWVRQAPGKGLEWVSSIVSSGGYTDYADSVKGRFTISRDNSKNTLYLQMNSLRAEDTAVYYCAREGDHNAFDIWGQGTMVTVSS
VL: QSVLTQPPSVSVAPGQTARISCGGDNIGSKSVHWYQQRPGQAPVLVVYDDYDRPSGIPERFSGSNSGDTAILTITRVEVGDEADFYCQVRDSRTEERVFGGGTKVTVL
FACS on stable CHO [2]: 5.5 nM

B3: 30-B01 (Li11) Fab (Fab, V domains shown)
VH: EVQLLESGGGLVQPGGSLRLSCAASGFTFSSYAMYWVRQAPGKGLEWVSSISTSGGYTGYADSVKGRFTISRDNSKNTLYLQMNSLRAEDTAVYYCARDTSDNDYYYMDVWGKGTTVTVSS
VL: DIQMTQSPSSVSAPIGDRVTITCRASQEIANYLAWYQQKPGKAPKLLIYDTYTLQTDVPPRFSGSGSGTDFTLTISSLQPEDTATYFCQQADIFPLSFGGGTKVEIK
notes: human, kappa; also called Li011; Dli11
binding result [3]: binds

B4: 2F3 monoclonal antibody (antibody, mouse IgG2a, V domains shown)
VH: EVKLEESGGGLVQPGGSMKLSCAASGFTFSDAWLDWVRQSPEKGLEWVAEIRSKANNHATNYAESVKGRFTISRDDSKSSVYLQMNSLRAEDTGIYFCTPSFAYWGQGTTVTVSS
VL: DIQMTQSPASLSASVGETVTITCRASGNIYNYLAWFQQKQGKSPQLLVYNAKTLPDGVPSRFSGSGSGTQYFLKINSLQPEDFGSYYCQHFWAIPYTFGGGTKLEIK
notes: murine IgG2a
binding result [4]: binds
binding result [5]: binds
binding result [6]: binds

B5: 30-C12 (Li01) Fab (Fab, V domains shown)
VH: EVQLLESGGGLVQPGGSLRLSCAASGFTFSKYQMTWVRQAPGKGLEWVSSIYPSGGNTVYADSVKGRFTISRDNSKNTLYLQMNSLRAEDTAVYYCASGTTEAVFDYWGQGTLVTVSS
VL: DIQMTQSPSSLSASVGDRVTITCQASQDISNYLNWYQQKPGKAPKLLIYDASNLETGVPSRFSGSGSGTDFTLTISSLQPEDFATYYCQQADRFPAVTFGGGTKVEIK
notes: human, kappa; also called Dli01
binding result [3]: binds
binding result [6]: binds

B6: 1A7 Fab (Fab, V domains shown)
VH: QVQLVQSGPELKKPGETVKISCKASGYTFTNYGMNWVKQAPGKGLKWMGWINTDTGEPTYTEDFQGRFAFSLETSASTVYLQFNNLKNEDTATYFCAREGVHFDYWGQGTTVTVSS
VL: QIVLTQSPAIMSASPGEKVTMTCSASSSVSYMHWYQQKSGTSPKRWIYDTSKLASGVPARFSGSGSGTSYSLTISSMEAEDAATYYCQQWSSNPFTFGSGTKLEIK
notes: Fab of murine IgG1/kappa 1A7
FACS on stable CHO [7]: ~1 nM

B7: 3B5.2 monoclonal antibody (ATCC PTA-8106) (antibody, mouse IgG1, V domains shown)
VH: QVQLQQPGAELVRPGTSVKLSCRASGYTFTSYWMHWVKQRPGQGLEWIGVIDPSDSYTNYNQKFRGKATLTVDTSSSTAYMQLSSLTSEDSAVYYCARPYYGSHWFFDVWGTGTTVTVSS
VL: QIVLTQSPAIMSASPGEKVTMTCSASSRVSYVHWYQQKSGTSPKRWLYDTSNLASGVPARFGGNGSGTSYSLTISSMEAEDAATYYCQQWSTNPPTFGGGTKLEIK
notes: murine IgG1/kappa; VL is named for 3B5.2; also called 3B5.5
binding result [8]: no binding
FACS on stable CHO [9]: 0.4 nM
FACS on stable CHO [7]: < 0.4 nM

B8: 80-A08 (Dli33) Fab (Fab, V domains shown)
VH: EVQLLESGGGLVQPGGSLRLSCAASGFTFSIYPMFWVRQAPGKGLEWVSWIGPSGGITKYADSVKGRFTISRDNSKNTLYLQMNSLRAEDTATYYCAREGHNDWYFDLWGRGTLVTVSS
VL: DIQMTQSPGTLSLSPGERATLSCRASQSVSSYLAWYQQKPGQAPRLLIYDASNRATGIPARFSGSGSGTEFTLTISSLQSEDFAVYYCQQYDKWPLTFGGGTKVEIK
notes: human
binding result [1]: binds
